Publication PMC10314757

Experiments:
FcγRIIIa (CD16a) = FcγRIIIa (CD16a) (UniProt P08637); test: SPR; BIAcore X100; receptor (20 µg/mL) captured by anti-His-tag antibodies on a CM5 chip, each receptor on its own chip; charge variant as analyte, 2.5 µM to 40 µM, single-cycle; HBS-EP buffer (10 mM HEPES pH 7.4, 150 mM NaCl, 50 µM EDTA, 0.005% P20)
FcγRIIIb (CD16b) = FcγRIIIb (CD16b) (UniProt O75015); test: as above

koff (FcγRIIIa (CD16a))	kon (FcγRIIIa (CD16a))	koff (FcγRIIIb (CD16b))	kon (FcγRIIIb (CD16b))	Kd (FcγRIIIb (CD16b))	Substance
0.05 s⁻¹	31300 M⁻¹ s⁻¹	–	–	–	trastuzumab proposed biosimilar, basic charge variants (basic peak) (antibody; other documents disagree on this pair)
0.09 s⁻¹	36600 M⁻¹ s⁻¹	–	–	–	trastuzumab proposed biosimilar, main charge variant (main peak) (antibody; other documents disagree on this pair)
–	–	0.33 s⁻¹	25600 M⁻¹ s⁻¹	–	trastuzumab proposed biosimilar, basic charge variants (basic peak) (antibody)
–	–	0.34 s⁻¹	15400 M⁻¹ s⁻¹	–	trastuzumab proposed biosimilar, main charge variant (main peak) (antibody)
–	–	0.82 s⁻¹	106000 M⁻¹ s⁻¹	14.3 µM	trastuzumab proposed biosimilar, acidic charge variants (acidic peak) (antibody)
0.08 s⁻¹	102000 M⁻¹ s⁻¹	–	–	–	trastuzumab proposed biosimilar, acidic charge variants (acidic peak) (antibody; other documents disagree on this pair)
